Read-outs that look alike come from different tables or passages of the source.
Experiments:
[1] = molecular target: T1, human 4-1BB on the surface of HEK293-Hu4-1BB cells (human, UniProt Q07011 24-255); assay: cell-based or functional assay
[2] = molecular target: T1, human 4-1BB on the surface of …; assay: flow cytometry on HEK293-Hu4-1BB cells
[3] = molecular target: T1, human 4-1BB on the surface of …; assay: cell-based or functional assay; remark: listed apart in the source
[4] = molecular target: T1, human 4-1BB on the surface of …; assay: flow cytometry on HEK293-Hu4-1BB cells; remark: listed apart in the source

T1 sequence (Q07011 24-255): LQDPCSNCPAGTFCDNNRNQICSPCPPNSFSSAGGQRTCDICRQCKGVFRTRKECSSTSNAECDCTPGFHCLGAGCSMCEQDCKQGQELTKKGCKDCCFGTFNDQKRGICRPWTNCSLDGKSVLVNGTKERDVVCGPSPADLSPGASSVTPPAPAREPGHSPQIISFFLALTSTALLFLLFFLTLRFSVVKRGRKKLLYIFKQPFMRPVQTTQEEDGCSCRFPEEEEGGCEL

EC50, 4-1BB/NF-κB luciferase reporter, FcγRIIb cross-linking [1]: 0.027 nM | EC50, 4-1BB/NF-κB luciferase reporter, no FcγRIIb cross-linking [1]: 2.19 nM | Emax, 4-1BB/NF-κB luciferase reporter, FcγRIIb cross-linking [1]: 9.39 relative to the antibody-free group | Emax, 4-1BB/NF-κB luciferase reporter, no FcγRIIb cross-linking [1]: 4.3 relative to the antibody-free group | EC50 [2]: 1.64 nM | Fold change in Emax, FcγRIIb-mediated activation of HEK293-4-1BB cells [3]: 2.61 fold | Fold change in Emax, activation of HEK293-4-1BB cells (no FcγRIIb) [3]: 1.7 fold | EC50 [4]: 1.18 nM
B1: Urelumab (antibody, V domains shown)
VH: QVQLQQWGAGLLKPSETLSLTCAVYGGSFSGYYWSWIRQSPEKGLEWIGEINHGGYVTYNPSLESRVTISVDTSKNQFSLKLSSVTAADTAVYYCARDYGPGNYDWYFDLWGRGTLVTVSS
VL: EIVLTQSPATLSLSPGERATLSCRASQSVSSYLAWYQQKPGQAPRLLIYDASNRATGIPARFSGSGSGTDFTLTISSLEPEDFAVYYCQQRSNWPPALTFGGGTKVEIK

— patent EP4628507A1 (Jiangsu Hengrui Pharmaceuticals Co., Ltd., dated 2025)
